Data: patent US8895303B2, “Method of cell culture and method of treatment comprising a vEPO protein variant” (Charite-Universitatsmedizin Berlin, priority 2006, dated 2014)

B1: mG3: murine EPO variant, peptide sequence SEQ ID NO 16 (protein, listed as Mus musculus)
chain: MGVPERPTLLLLLSLLLIPLGLPVLCAPPRLICDSRVLERYILEAKEAENVTMGCAEGPRLSENITVPDTKVNFYAWKRMEVEEQAIEVWQGLSLLSEAILQAQALLANFLRGKLKLYTGEVCRRGDR
B2: mEPO: wild type mouse erythropoietin expressed in HEK cells (protein, listed as Mus musculus)
chain: MGVPERPTLLLLLSLLLIPLGLPVLCAPPRLICDSRVLERYILEAKEAENVTMGCAEGPRLSENITVPDTKVNFYAWKRMEVEEQAIEVWQGLSLLSEAILQAQALLANSSQPPETLQLHIDKAISGLRSLTSLLRVLGAQKELMSPPDTTPPAPLRTLTVDTFCKLFRVYANFLRGKLKLYTGEVCRRGDR
B3: mS: murine EPO splice variant, peptide sequence SEQ ID NO 14 (protein, listed as Mus musculus)
chain: MGVPERPTLLLLLSLLLIPLGLPVLCAPPRLICDSRVLERYILEAKEAENVTMGCAEGPRLSENITVPDTKVNFYAWKRMEKELMSPPDTTPPAPLRTLTVDTFCKLFRVYANFLRGKLKLYTGEVCRRGDR

Legend:
bone marrow cells = experiment: Erythroid colony formation assay (CFU-E); assay type: cell-based, mouse; conditions: 150 U/l mEPO or rhEPO, comparable protein concentrations of variants; no additional cytokines; counted at DIV2
Procedure: Bone marrow cells were harvested from tibia and femur of male […] mice (8-11 weeks) and resuspended in α-medium (supplemented with 10% fetal calf serum GOLD, 1% penicillium/streptavidine and 1% L-glutamine). Cells were seeded in […] Petri dishes (225.000 cells/dish) containing 8 parts Metho Cult SF 3236 methyl cellulose (StemCell Technologie Inc), 1 part cells and 2 parts a-medium mixed with HEK-cell preconditioned medium containing the EPO derivates (150 U/l in the case of murine EPO). 150 U/l of rhEPO (Roche) was used as positive control. Plates were incubated at 37° C. in a humidified atmosphere containing 5% CO2 for 48 hours. For evaluation only reddish colonies containing at least 6 hemoglobinised cells were taken into account.
Metho Cult SF 3236 triggers the formation of colonies (CFU-M, CFU-G or CFU-E) only after addition of the appropriate cytokines. […] The small irregular reddish colonies disappear by day 3.
In this assay, the hematopoietic potential of the variants was tested and compared to wild type form of EPO as well as rhEPO. The following conditions were prepared for comparison: medium from HEK cells transfected with pZ/EG as negative control, medium from HEK cells transfected with pZ/EG cells plus 150U/l rhEPO (Roche) as a positive control, and medium from HEK cells transfected with either pZ/EG-EPO-IRES (150 U/l murine EPO), pZ/EG-Splice-IRES (variant S; mS) or pZ/EG-G3-IRES (variant G3; mG3). At DIV2 only reddish colonies were counted containing at least 6 hemoglobinised cells. The results of three independent experiments are depicted in FIG. 5.

[1] = system: rat primary cortical neurons; experiment: Oxygen glucose deprivation (OGD) neuroprotection assay, LDH release; assay type: cell-based; conditions: for neuroprotection (reduction in LDH release): OGD 3 h 15 min (higher level of damage)
Procedure: Rat primary neuronal cultures were obtained from E16 to early E19 embryos of Wistar rats (Bundesinstitut für gesundheitlichen Verbraucherschutz and Veterinärmedizin, Berlin, Germany). Cre-expressing mouse neurons were obtained from E16 embryos of heterozygous transgenic mice expressing Cre-recombinase under the control of the tubulin α-1 promoter (provided by Dr. U. Schweitzer; Experimental Endocrinology, Charité). Murine and rat cultures were prepared according to a modified protocol from Brewer (1995) J Neurosci Res. 42: 674-83. Cerebral cortex was isolated after removal of meninges and rinsed twice in PBS (Biochrom, Berlin, Germany). After 15 min incubation in trypsin/EDTA (0.05/0.02% w/v in PBS) at 37° C., tissues were rinsed twice in N-Med (modified Eagle's medium from Gibco with 10% fetal calf serum, 100 U penicillin plus streptomycin from Biochrom, 2 mM L-glutamine, 100 IE insulin/I, 10 mM HEPES and 44 mM glucose) and dissociated carefully in a small volume of N-Med using a Pasteur pipette. […]
For OGD, the culture medium was washed out by rinsing once with PBS. […] After 24 h, lactate dehydrogenase (LDH) activity was measured in the supernatants as an indicator of cell death.
For LDH measurement 25 μl of medium was mixed with 100 μl fresh β-NADH solution (0.15 mg/ml in 1×LDH-buffer; Sigma, reduced form) in a 96 wells plate (Greiner). 25 μl of 22.7 mM pyruvate (Sigma) was added immediately before placing the plate into the Reader (Thermo Labsystems; MRX^TC Revelation). […] LDH-concentration was calculated proportionally to the LDH-standard (Greiner, system calibrator). […]
For pretreatment with rhEPO, wild type mEPO, wild type hEPO or EPO variants the medium was removed to an end volume of 200 μl and filled up with 200 μl fresh NBM+B27 containing equimolar amounts (corresponding to 200 U/l rhEpo) of EPO or EPO variants, respectively. […] Cell death was assessed 24 h after OGD by measurement of LDH release. […]

Molecule	hematopoietic potential (formation of CFU-E) (bone marrow cells)	neuroprotection (reduction in LDH release) [1] [%]	protection rate (reduction in LDH release) ([1]; OGD 1 h 40 min and 1 h 50 min)
B1	lacked hematopoietic potential	~60	
B2	formation of cfu-e		no protection
B3	lacked hematopoietic potential	~60	
